Assay results as given in patent US20230241243A1, “CARRIER PARTICLE-DRUG CONJUGATES, SELF-IMMOLATIVE LINKERS, AND USES THEREOF” (priority 2020, published 2023).

test: Drug-release assay of nanoparticle-conjugated linker-payloads under cleavage conditions (Cat-B, redox-responsive or pH-sensitive cleaving study), RP-HPLC; format: in vitro ADME; settings: linker-payload conjugated to DBCO-functionalized silica nanoparticle, 37° C., 24 hours
Procedure: To assess the drug releasing profile of exemplary linker-drug conjugates, the linker-drug conjugates were each conjugated to a DBCO-functionalized ultrasmall silica nanoparticle via a click chemistry reaction between the azide groups on the linker-drug conjugate precursors and the dibenzocyclooctyne (DBCO) groups of the nanoparticles. The resulting drug-nanoparticle-conjugates were then incubated under the desired releasing conditions for release kinetics tests.
The amount of released drugs vs non-released drugs was measured using reverse phase HPLC by analyzing the area under curve (AUC) (FIG. 10A and FIG. 10B).
General Method: A Waters Xbridge Peptide BEH C18 column with 4.6 mm×50 mm dimensions, a particle size of 5 μm, and a pore size of 300 A was used (part number 186003622). Acetonitrile (VWR HiPerSolv Chromanorm, UHPLC Grade) was used as received without further preparation, […] trifluoroacetic acid in deionized water was prepared by adding 1 mL of trifluoroacetic acid (HPLC grade, Millipore-Sigma) into 999 mL 18.2 MΩ·cm deionized water that was generated using an IQ7000 Millipore deionized water system and passed through a 0.2 μm filter before use. The seal wash used for the system was composed of 90% 18.2 MΩ·cm deionized water and 10% methanol (HPLC grade, VWR). The injection needle was washed using a mixture of 25 vol % 18.2 MΩ·cm deionized water, 25 vol % acetonitrile, 25 vol % methanol, and 25 vol % 2-propanol. Samples were prepared in a concentration range of 0.25 to 2 μM and the injection volume ranges from 60 μL to 10 μL, respectively. Higher sample concentration can be used if detector signal is low. Vials used for all injections are fresh Waters Total Recovery vials with screw caps that have pre-slit PTFE septa (part number 186000385C).
Method for Protease-cleavable and Redox-responsive Linkers: Before any sample injections were started, the PDA lamp was turned on and allowed to warm up for at least 30 minutes. The system and column were equilibrated with 95% 0.01% TFA in deionized water, 5% acetonitrile for at least 10 minutes at a flow rate of 1.0 mL/min after the PDA lamp had warmed up. Two blank injections, with injection volumes of 10 μL containing only 18.2 MΩ·cm deionized water, were performed before the injection of any samples for analysis. The gradient used to elute protease-cleavable and redox-sensitive linkers conjugated to hybrid silica nanoparticles, and their components began at 95% 0.01% TFA in deionized water and 5% acetonitrile and linearly changed to 15% 0.01% TFA in deionized water, 85% acetonitrile over 8 minutes. Acetonitrile composition was increased to 95% over an additional minute and held at 95% for an additional 2 minutes to ensure that any strongly retained compounds are eluted. The composition of the solvent was then changed back to the starting composition of the gradient over an additional minute and allowed to equilibrate for 3 minutes before another injection began. Between sample injections a blank injection was run to ensure that no carryover occurred.
Method for pH-sensitive Linkers: Before any sample injections were started, the PDA lamp was turned on and allowed to warm up for at least 30 minutes. A gradient of pure deionized water and acetonitrile was used, all other consumables including column and vials were the same as for the method to purify Cat-B sensitive and redox-responsive linkers elaborated on above. Briefly the gradient composition began at 95% deionized water and 5% acetonitrile at a flow rate of 1.0 mL/min (not changed throughout the method). The composition was changed from this starting composition to 15% deionized water and 85% acetonitrile over a 12-minute period, during which the retained drug-linkers, released drug, free drug linker, and any other impurities eluted. At the 12-minute mark the composition was rapidly changed to 5% deionized water and 95% acetonitrile over the course of one minute. […]

SMILES	% of Payload Release in 24 Hours Under Cleavage Conditions
CC[C@@]1(O)C(=O)OCc2c1cc1n(c2=O)Cc2c-1nc1cc(F)c(C)c3c1c2[C@@H](NC(=O)C(O)c1ccc(NC(=O)[C@H](CCCCN)NC(=O)[C@H](Cc2ccccc2)NC(=O)CCOCCOCCOCCOCCOCCOCCN=[N+]=[N-])cc1)CC3 (single isomer, unassigned) [Example 29-Peak 1]	+++ (‘+++’ indicates 51-75% release)
CC[C@@]1(O)C(=O)OCc2c1cc1n(c2=O)Cc2c-1nc1cc(F)c(C)c3c1c2[C@@H](NC(=O)C(O)c1ccc(NC(=O)[C@H](CCCCN)NC(=O)[C@H](Cc2ccccc2)NC(=O)CCOCCOCCOCCOCCOCCOCCN=[N+]=[N-])cc1)CC3 (single isomer, unassigned) [Example 29-Peak 2]	++ (‘++’ indicates 26-50% release)
CC[C@@]1(O)C(=O)OCc2c1cc1n(c2=O)Cc2c-1nc1cc(F)c(C)c3c1c2[C@@H](NC(=O)OCc1ccc(NC(=O)[C@H](CCCNC(N)=O)NC(=O)[C@@H](NC(=O)CCOCCOCCOCCOCCOCCN=[N+]=[N-])C(C)C)cc1)CC3 [Example 9, 4-((20S,23S)-1-azido-20-isopropyl-18,21-dioxo-23-(3-ureidopropyl)-3,6,9,12,15-pentaoxa-19,22-diazatetracosan-24-amido)benzyl ((1S,9S)-9-ethyl-5-fluoro-9-hydroxy-4-methyl-10,13-dioxo-2,3,9,10,13,15-hexahydro-1H,12H-benzo[de]pyrano[3′,4′:6,7]indolizino[1,2-b]quinolin-1-yl)carbamate]	++++ (‘++++’ indicates 76-100% release)
CC[C@@]1(O)C(=O)OCc2c1cc1n(c2=O)Cc2c-1nc1cc(F)c(C)c3c1c2[C@@H](NC(=O)OCc1ccc(NC(=O)[C@H](CCCNC(N)=O)NC(=O)[C@@H](NC(=O)CCOCCOCCOCCOCCOCCOCCOCCOCCOCCOCCOCCN=[N+]=[N-])C(C)C)cc1)CC3 [Example 11, 4-((38S,41S)-1-azido-38-isopropyl-36,39-dioxo-41-(3-ureidopropyl)-3,6,9,12,15,18,21,24,27,30,33-undecaoxa-37,40-diazadotetracontan-42-amido)benzyl ((1S,9S)-9-ethyl-5-fluoro-9-hydroxy-4-methyl-10,13-dioxo-2,3,9,10,13,15-hexahydro-1H,12H-benzo[de]pyrano[3′,4′:6,7]indolizino[1,2-b]quinolin-1-yl)carbamate]	+++ (‘+++’ indicates 51-75% release)
CCc1c2c(nc3ccc(OC(C(=O)OC)c4ccc(NC(=O)[C@H](CCCNC(N)=O)NC(=O)[C@@H](NC(=O)CCOCCOCCOCCOCCOCCN=[N+]=[N-])C(C)C)cc4)cc13)-c1cc3c(c(=O)n1C2)COC(=O)[C@]3(O)CC (stereo partly drawn) [Example 12, methyl 2-(4-((20S,23S)-1-azido-20-isopropyl-18,21-dioxo-23-(3-ureidopropyl)-3,6,9,12,15-pentaoxa-19,22-diazatetracosan-24-amido)phenyl)-2-(((S)-4,11-diethyl-4-hydroxy-3,14-dioxo-3,4,12,14-tetrahydro-1H-pyrano[3′,4′:6,7]indolizino[1,2-b]quinolin-9-yl)oxy)acetate]	+ (‘+’ indicates 5-25% release)
CCc1c2c(nc3ccc(OC(C(=O)OC)c4ccc(NC(=O)[C@H](CCCNC(N)=O)NC(=O)[C@@H](NC(=O)CCOCCOCCOCCOCCOCCOCCOCCOCCOCCN=[N+]=[N-])C(C)C)cc4)cc13)-c1cc3c(c(=O)n1C2)COC(=O)[C@]3(O)CC (stereo partly drawn) [Example 13-R isomer, Methyl 2-(4-((32S,35S)-1-azido-32-isopropyl-30,33-dioxo-35-(3-ureidopropyl)-3,6,9,12,15,18,21,24,27-nonaoxa-31,34-diazahexatriacontan-36-amido)phenyl)-2-(((S)-4,11-diethyl-4-hydroxy-3,14-dioxo-3,4,12,14-tetrahydro-1H-pyrano[3′,4′:6,7]indolizino[1,2-b]quinolin-9-yl)oxy)acetate]	+ (‘+’ indicates 5-25% release)
CCc1c2c(nc3ccc(OC(C(=O)OC)c4ccc(NC(=O)[C@H](CCCNC(N)=O)NC(=O)[C@@H](NC(=O)CCOCCOCCOCCOCCOCCOCCOCCOCCOCCOCCOCCN=[N+]=[N-])C(C)C)cc4)cc13)-c1cc3c(c(=O)n1C2)COC(=O)[C@]3(O)CC (stereo partly drawn) [Example 14-R isomer, Methyl 2-(4-((38S,41S)-1-azido-38-isopropyl-36,39-dioxo-41-(3-ureidopropyl)-3,6,9,12,15,18,21,24,27,30,33-undecaoxa-37,40-diazadotetracontan-42-amido)phenyl)-2-(((S)-4,11-diethyl-4-hydroxy-3,14-dioxo-3,4,12,14-tetrahydro-1H-pyrano[3′,4′:6,7]indolizino[1,2-b]quinolin-9-yl)oxy)acetate]	+ (‘+’ indicates 5-25% release)
CCc1c2c(nc3ccc(OCCCNC(=O)OCc4ccc(NC(=O)[C@H](CCCNC(N)=O)NC(=O)[C@@H](NC(=O)CCOCCOCCOCCOCCOCCN=[N+]=[N-])C(C)C)cc4)cc13)-c1cc3c(c(=O)n1C2)COC(=O)[C@]3(O)CC [Example 15, 4-((20S,23S)-1-azido-20-isopropyl-18,21-dioxo-23-(3-ureidopropyl)-3,6,9,12,15-pentaoxa-19,22-diazatetracosan-24-amido)benzyl (3-(((S)-4,11-diethyl-4-hydroxy-3,14-dioxo-3,4,12,14-tetrahydro-1H-pyrano[3′,4′:6,7]indolizino[1,2-b]quinolin-9-yl)oxy)propyl)carbamate]	++ (‘++’ indicates 26-50% release)
CCc1c2c(nc3ccc(OCCCNC(=O)OCc4ccc(NC(=O)[C@H](CCCNC(N)=O)NC(=O)[C@@H](NC(=O)CCOCCOCCOCCOCCOCCOCCOCCOCCOCCN=[N+]=[N-])C(C)C)cc4)cc13)-c1cc3c(c(=O)n1C2)COC(=O)[C@]3(O)CC [Example 16, 4-((32S,35S)-1-azido-32-isopropyl-30,33-dioxo-35-(3-ureidopropyl)-3,6,9,12,15,18,21,24,27-nonaoxa-31,34-diazahexatriacontan-36-amido)benzyl (3-(((S)-4,11-diethyl-4-hydroxy-3,14-dioxo-3,4,12,14-tetrahydro-1H-pyrano[3′,4′:6,7]indolizino[1,2-b]quinolin-9-yl)oxy)propyl)carbamate]	+++ (‘+++’ indicates 51-75% release)
CCc1c2c(nc3ccc(OCCCNC(=O)OCc4ccc(NC(=O)[C@H](CCCNC(N)=O)NC(=O)[C@@H](NC(=O)CCOCCOCCOCCOCCOCCOCCOCCOCCOCCOCCOCCN=[N+]=[N-])C(C)C)cc4)cc13)-c1cc3c(c(=O)n1C2)COC(=O)[C@]3(O)CC [Example 17, 4-((38S,41S)-1-azido-38-isopropyl-36,39-dioxo-41-(3-ureidopropyl)-3,6,9,12,15,18,21,24,27,30,33-undecaoxa-37,40-diazadotetracontan-42-amido)benzyl (3-(((S)-4,11-diethyl-4-hydroxy-3,14-dioxo-3,4,12,14-tetrahydro-1H-pyrano[3′,4′:6,7]indolizino[1,2-b]quinolin-9-yl)oxy)propyl)carbamate]	++ (‘++’ indicates 26-50% release)
CCc1c2c(nc3ccc(OC(C(=O)N(C)C)c4ccc(NC(=O)[C@H](CCCNC(N)=O)NC(=O)[C@@H](NC(=O)CCOCCOCCOCCOCCOCCOCCOCCOCCOCCN=[N+]=[N-])C(C)C)cc4)cc13)-c1cc3c(c(=O)n1C2)COC(=O)[C@]3(O)CC (stereo partly drawn) [Example 19, 1-azido-N-((2S)-1-(((2S)-1-((4-(1-(((S)-4,11-diethyl-4-hydroxy-3,14-dioxo-3,4,12,14-tetrahydro-1H-pyrano[3′,4′:6,7]indolizino[1,2-b]quinolin-9-yl)oxy)-2-(dimethylamino)-2-oxoethyl)phenyl)amino)-1-oxo-5-ureidopentan-2-yl)amino)-3-methyl-1-oxobutan-2-yl)-3,6,9,12,15,18,21,24,27-nonaoxatriacontan-30-amide]	+ (‘+’ indicates 5-25% release)
